Test results reported in PMC7813410, “Intraperitoneal insulin administration in pigs: effect on circulating insulin and glucose levels” (BMJ Open Diabetes Research & Care, 2021).
Read-outs that look alike come from different tables or passages of the source.

What was measured:
[1] = test system: endogenous insulin secretion; test: Suppression of endogenous insulin secretion by somatostatin analogs (Porcine Insulin ELISA); type: in vivo, pig; conditions: octreotide 0.4 mg IV hourly together with pasireotide 0.3 mg SC every 3 hours, pigs, no detectable levels
Experimental: To suppress the endogenous insulin and glucagon secretion, all pigs received the somatostatin analogs octreotide (Sandostatin 200 µg/mL, Novartis Europharm, UK) and pasireotide (Signifor 0.3 mg/mL, Novartis Europharm).
(§1) The somatostatin analogs were injected 1 hour before the first insulin bolus of the day. 0.4 mg octreotide was injected intravenously and 0.3 mg pasireotide was injected subcutaneously. The octreotide injections were repeated hourly and the pasireotide injections were repeated every 3 hours during the trial.

[2] = test system: pigs; test: Blood glucose after intraperitoneal insulin boluses in anesthetized pigs; type: in vivo, pig; conditions: mean±SE
Experimental: In every stall, a heating lamp was provided.
as §1
To prevent hypoglycemia, a continuous venous glucose infusion was provided through the left internal jugular vein and was continued for the duration of the experiment. The blood glucose levels were kept in the range of 4.5–5.5 mmol/L before each insulin bolus was given.
In the first pig, we tested different glucose infusion rates to identify a suitable rate. In the remaining seven pigs, a constant glucose infusion rate of 8 g/hour was used throughout the experiments.
For both trials, arterial blood samples for glucose analysis were collected in heparinized syringes (LEO Pharma). Samples were analyzed on a Radiometer ABL 725 blood gas analyzer (Radiometer Medical, Brønshøj, Denmark). All blood samples were placed on ice immediately after extraction from the pigs. Most samples were analyzed consecutively, but some samples were stored on ice for a maximum of 20 min before analysis.
In the main trial, samples were collected 10, 5 and 1 min prior to the first somatostatin analog injection, every 10 min for the first hour after Sandostatin injection, every minute for the first 10 min after the insulin bolus, and every fifth minute thereafter for the next 110 min.
From the main trial, data from the last seven pigs were used for statistical analysis. We assumed the glucose levels at −5 min to be the baseline glucose levels at the start before each bolus (online supplemental figure S1).
Treatment and time were the sources of variation. […] Statistics were performed with GraphPad Prism V.8 Statistics.

[3] = Description: Between January 2017 and August 2018, eight juvenile, non-diabetic, cross-bred pigs (50% Landswine, 50% Yorkshire) approximately 3 months of age (one male (36.2 kg) and seven females (39.5±2.7 kg)) were brought from the same local farmer approximately 1 week before the trials and acclimatized to the staff and new environment. Whenever possible, the pigs were kept in groups in a common stall (11.2 m^2) with concrete floor covered with woodchips. In every stall, a heating lamp was provided. In the facility, a day-night photoperiod (night: 21:00–05:00, dawn: 05:00–07:00, day: 07:00–19:00, dusk: 19:00–21:00) was maintained at 22°C and a relative humidity of 45%±5%. The pigs were fed standard food (Format Vekst 100, Felleskjøpet, Norway) and fresh water was available ad libitum. Food was removed 17 hours before the start of the trial while water was available until anesthesia was initiated.
In the main trial, the first pig was used to obtain information about optimal infusion rate of glucose to maintain stable glucose levels throughout the trial days. The second pig was used to confirm the chosen infusion rate. The remaining six pigs were used to study the pharmacokinetics and pharmacodynamics of intraperitoneally delivered insulin boluses. However, all pigs received boluses of 2, 5 and 10 U of insulin (1 U/s) in the upper right quadrant of the intraperitoneal cavity. The order of insulin boluses for the first two pigs was 2, 5 and 10 U. The order of boluses for the last six pigs was randomized.[6] There were at least 2 hours and 30 min between each bolus.
At the start of every trial day, a fresh insulin analog (100 U/mL, NovoRapid, Novo Nordisk, Denmark) was inserted in an insulin pump (Animas Vibe).
(§2) In the main trial, all pigs (n=7) received three insulin boluses (2, 5 and 10 U) in the upper right intraperitoneal space. In the additional trial, insulin boluses were injected into the subcutaneous tissues in the left side of the neck. Two pigs received 10 U boluses and one pig received a 5 U bolus.
(§3) In both trials, blood samples for insulin analysis were stored on ice for at least 10 min before centrifugation (10 min at 2.000× rpm in a refrigerated centrifuge). Plasma was collected from the samples immediately after centrifugation and transferred into empty Eppendorf Tubes and temporarily stored at −20°C. At the end of each trial day, plasma samples were stored at −80°C.
(§4) Plasma insulin was analyzed as singles by Iso-Insulin ELISA kit (10-1128-01, Mercodia, Uppsala, Sweden). Suppression of endogenous insulin secretion was verified by analyses of Porcine Insulin ELISA (10-1200-01, Mercodia) according to the manufacturer’s protocol. The results were converted from mU/L to pmol/L by a conversion factor 6, as recommended by the manufacturer. The lowest detectable insulin concentration for the Iso-Insulin ELISA kit was <3.0 mU/L (18 pmol/L) and for Porcine Insulin ELISA was <2.3 mU/L (13.8 pmol/L).
Delta values collected from the main trial with different insulin boluses (2, 5 and 10 U) in the pigs were analyzed. In order to estimate possible significant differences in circulating insulin and blood glucose levels after IP insulin boluses, a two-way repeated measures analysis of variance was performed. Treatment and time were the sources of variation. Tukey’s multiple comparisons test was used for distinguishing comparisons between different insulin boluses. All non-measurable insulin values were set at 18 pmol/L. All treatments are compared as models; therefore, comparison between unequal groups is allowed. Statistics were performed with GraphPad Prism V.8 Statistics. All values are given as mean±SD, unless stated otherwise. Differences between the groups were considered significant if p≤0.05.

[4] = remark: listed apart in the source
Description: We also performed an additional trial to investigate subcutaneous insulin dynamics and effect on blood glucose levels, performed under similar conditions. For more details, see online supplemental material section 'Additional trial'. In short, between May 2019 and January 2020, three juvenile, non-diabetic, cross-bred male pigs (50% Landswine, 50% Yorkshire) approximately 3 months of age weighing 39.5±4.3 kg were brought from the same local farmer and kept in the conditions as in the main trial.
In the additional trial, two pigs received 10 U subcutaneous insulin boluses and one pig received a 5 U subcutaneous insulin bolus. All subcutaneous insulin boluses were performed as the first bolus of the day.
Additionally, all pigs received an intraperitoneal glucagon bolus (150 µg) 40 min after the insulin bolus.
as §2, §3, §4

[5] = in vitro model; cited from earlier work
Description: The liver is the major organ involved in glucose homeostasis.

[6] = 5 U subcutaneous bolus, n=1 pig
[7] = 10 U subcutaneous boluses, n=2 pigs

Substance	endogenous insulin levels during the experiments [1] [pmol/L]	decrease of estimated mean blood glucose level after 5 U compared with 2 U intraperitoneal insulin boluses ([2]; 5 U vs 2 U IP bolus, anesthetized non-diabetic pigs, n=7, 120 min after bolus, glucose infusion 8 g/hour, 95% CI 0.31 to 0.65, p<0.0001) [mmol/L]	decrease of estimated mean blood glucose level after 10 U compared with 2 U intraperitoneal insulin boluses ([2]; 10 U vs 2 U IP bolus, anesthetized non-diabetic pigs, n=7, 120 min after bolus, glucose infusion 8 g/hour, 95% CI 0.44 to 0.79, p<0.0001) [mmol/L]	change of mean blood glucose level after 10 U compared with 5 U intraperitoneal insulin boluses ([2]; 10 U vs 5 U IP bolus, n=7 pigs, 95% CI −0.04 to 0.30, p=0.184, not different) [mmol/L]	effect on mean circulating insulin level ([3]; 2 U IP bolus, n=7 pigs)	effect on mean circulating insulin level ([3]; 5 U IP bolus, n=7 pigs)	mean circulating insulin levels after 5 U compared with 2 U intraperitoneal insulin boluses ([3]; 5 U vs 2 U IP bolus, n=7 pigs, p=0.89)	time after which mean circulating insulin level was close to baseline ([3]; 10 U IP bolus, n=7 pigs) [min]	time after which mean insulin level started to increase ([3]; 10 U IP bolus, n=7 pigs) [min]	increase of mean circulating insulin level after 10 U compared with 2 U intraperitoneal insulin boluses ([3]; 10 U vs 2 U IP bolus, n=7 pigs, plasma, Iso-Insulin ELISA, mean±SE, 95% CI 1.99 to 5.37, p<0.0001) [pmol/L]	increase of mean circulating insulin level after 10 U compared with 5 U intraperitoneal insulin boluses ([3]; 10 U vs 5 U IP bolus, n=7 pigs, plasma, Iso-Insulin ELISA, mean±SE, 95% CI 5.86 to 10.89, p<0.0001) [pmol/L]	first-pass effect in the liver ([3]; after the smaller (2 and 5 U) IP insulin boluses, inferred from circulating insulin levels in pigs) [%]	time after bolus at which insulin level was increased [4, 6] [min]	time at which insulin levels were still elevated [4, 6] [min]	time after boluses at which mean insulin level was increased [4, 7] [min]	time at which insulin levels were still elevated [4, 7] [min]	mean circulating insulin level after subcutaneous compared with intraperitoneal insulin boluses ([4]; subcutaneous (5 U n=1, 10 U n=2) vs IP boluses (n=7), p value not calculated)	hepatic first-pass effect [5]
octreotide	< 13.8	–	–	–	–	–	–	–	–	–	–	–	–	–	–	–	–	–
insulin: fresh insulin analog (100 U/mL, NovoRapid, Novo Nordisk, Denmark) delivered by insulin pump	–	0.48 ± 0.07	0.61 ± 0.07	0.13 ± 0.07	did not increase	did not increase	not different	80	10	7.89 ± 1.07	8.37 ± 1.07	~100	5	140	5	140	increased more	up to 80%
pasireotide	< 13.8	–	–	–	–	–	–	–	–	–	–	–	–	–	–	–	–	–
